Measured values: article PMC2646846

Experiments:
Experiment in all cases: FRET or BRET
[1] = target: calpain-2 Cys105Ala-CCPGCC-H6 (rat) labelled with LumioGreen, with the truncated small subunit (rat) (UniProt Q07009)
[2] = target: calpain-2 Cys105Ala-eGFP-H6 (rat) with the truncated small subunit (rat) (UniProt Q07009)
[3] = target: labeled calpastatin fragments (competition by non-fluorigenic calpains)

| Substance | increase in EmAcc/EmDon on addition of calcium [1] | increase in EmAcc/EmDon on addition of calcium [2] | FRET efficiency [2] | maximal calcium-dependent increase in EmAcc/EmDon (average) [2] | further results |
| --- | --- | --- | --- | --- | --- |
| cL-ABC-D1 Cys241Ser Ser151Cys labelled with AlexaFluor546 (from UniProt P20810 114-270) (domain or fragment) | 330% | 99.9% | 32.7% | 0.45 | – |
| cL-ABC-D1 Cys241Ser Ser148Cys labelled with TMR (from UniProt P20810 114-270) (domain or fragment) | 330% | – | – | – | – |
| cL-ABC-D1 Cys241Ser Ser151Cys labelled with TMR (from UniProt P20810 114-270) (domain or fragment) | 330% | – | – | – | – |
| porcine erythrocyte calpain 1 (from UniProt P35750 1-714; P04574 1-266) (complex) | – | – | – | – | inhibition of FRET at ~0.35 μM competitor [3]: 50% |
| cL-AtB-D1 Ser148Cys labelled with AlexaFluor546 (from UniProt P20810 114-202) (domain or fragment) | – | 66.7% | – | 0.169 | – |
| calpain-2 Cys105Ala (rat), non-fluorigenic, with the truncated small subunit (from UniProt Q07009 20-700) (complex) | – | – | – | – | inhibition of FRET at ~0.35 μM competitor [3]: 50% |

The next lines start with results.

| increase in EmAcc/EmDon on addition of calcium [1] | increase in EmAcc/EmDon on addition of calcium [2] | FRET efficiency [2] | maximal calcium-dependent increase in EmAcc/EmDon (average) [2] | Substance | further results |
| --- | --- | --- | --- | --- | --- |
| 330% | 99.9% | – | – | cL-ABC-D1 Cys241Ser Ser142Cys labelled with AlexaFluor546 (from UniProt P20810 114-270) (domain or fragment) | – |
| – | 34.1% | 13.2% | – | cL-ABC-D1 Cys241Ser Ser223Cys labelled with AlexaFluor546 (from UniProt P20810 114-270) (domain or fragment) | – |
| – | 99.9% | 33.5% | 0.45 | cL-ABC-D1-Cys241Ser-Ala246Cys Alexafluor546 (from UniProt P20810 114-270) (domain or fragment) | absolute increase in EmAcc/EmDon on addition of calcium (2.5 mM) [2]: 0.456; increase in EmAcc/EmDon on addition of calcium (2.5 mM), single assay [2]: 70% |
| – | 66.7% | – | – | cL-AtB-D1 Ser142Cys labelled with AlexaFluor546 (from UniProt P20810 114-202) (domain or fragment) | – |
| 330% | 99.9% | – | 0.45 | cL-ABC-D1 Cys241Ser Ser148Cys labelled with AlexaFluor546 (from UniProt P20810 114-270) (domain or fragment) | – |
| – | 66.7% | 25.3% | 0.169 | cL-AtB-D1-Ser151Cys-Alexafluor546 (from UniProt P20810 114-202) (domain or fragment) | absolute increase in EmAcc/EmDon on addition of calcium (2.5 mM) [2]: 0.22; increase in EmAcc/EmDon on addition of calcium (2.5 mM), single assay [2]: 64.4% |
| 330% | – | – | – | cL-ABC-D1 Cys241Ser Ser142Cys labelled with TMR (from UniProt P20810 114-270) (domain or fragment) | – |
